Results as given in patent US20150344570A1 (published 2015).
Where a chain is given by its changes, count along the chain named. In names and notes the source's numbering stands.

B1: GpH7-Kn033/GpH7-Hl033/GpL16-k0 (antibody, human IgG1, kappa)
heavy 1: not shown
heavy 2: not shown
light: DIVMTQSPLSLPVTPGEPASISCQASESLVHSNRNTYLHWYLQKPGQSPQLLIYKVSNRFSGVPDRFSGSGSGTDFTLKISRVEAEDVGVYYCSQNTHVPPTFGQGTKVEIERTVAAPSVFIFPPSDEQLKSGTASVVCLLNNFYPREAKVQWKVDNALQSGNSQESVTEQDSKDSTYSLSSTLTLSKADYEKHKVYACEVTHQGLSSPVTKSFNRGEC
notes: Anti-glypican-3 IgG1 (G1d, C-terminal Gly-Lys removed) with knobs-into-holes alterations only; also called Kn033/Hl033
B2: GpH7-Kn032/GpH7-Hl032/GpL16-k0 (antibody, human IgG1, kappa)
heavy 1: QVQLVQSGAEVKKPGASVTVSCKASGYTFTDYEMHWIRQPPGEGLEWIGAIDPKTGDTAYSESFQDRVTLTADKSTSTAYMELSSLTSEDTAVYYCTRFYSYTYWGQGTLVTVSSASTKGPSVFPLAPSSKSTSGGTAALGCLVKDYFPEPVTVSWNSGALTSGVHTFPAVLQSSGLYSLSSVVTVPSSSLGTQTYICNVNHKPSNTKVDKKVEPKSCDKTHTCPPCPAPELLGGPDVFLFPPKPKDTLMISRTPEVTCVVVDVSHEDPEVKFNWYVDGVEVHNAKTKPREEQYNSTYRVVSVLTVLHQDWLNGKEYKCKVSNKALPLPEEKTISKAKGQPREPQVCTLPPSRDELTKNQVSLWCLVKGFYPSDIAVEWESNGQPENNYKTTPPVLDSDGSFFLYSKLTVDKSRWQQGNVFSCSVMHEALHNHYTQKSLSLSP
heavy 2: B2 heavy 1 with C347Y, D354C, W364S, L366A, Y405V
light: B1 light
notes: Anti-glypican-3 IgG1, knobs-into-holes; both H chains carry S239D/A330L/I332E; also called Kn032/Hl032
B3: GpH7-Kn037/GpH7-Hl036/GpL16-k0 (antibody, human IgG1, kappa)
heavy 1: B2 heavy 1 with G234A, L328A
heavy 2: B2 heavy 1 with G234A, L328A, C347Y, D354C, W364S, L366A, Y405V
light: B1 light
notes: Anti-glypican-3 IgG1, knobs-into-holes; also called Kn037/Hl036
B4: GpH7-Kn045/GpH7-Hl048/GpL16-k0 (antibody, human IgG1, kappa)
heavy 1: B2 heavy 1 with L232Y, L233Y, G234A, D237S, H266D, S296A, L328A, E330I
heavy 2: B2 heavy 1 with G234A, L328K, C347Y, D354C, W364S, L366A, Y405V
light: B1 light
notes: Heterodimerized anti-glypican-3 IgG1, knobs-into-holes; also called Kn045/Hl048
B5: GpH7-Kn045/GpH7-Hl055/GpL16-k0 (antibody, human IgG1, kappa)
heavy 1: B2 heavy 1 with L232Y, L233Y, G234A, D237S, H266D, S296A, L328A, E330I
heavy 2: B2 heavy 1 with G234A, Q293L, L328M, C347Y, D354C, W364S, L366A, Y405V
light: B1 light
notes: Heterodimerized anti-glypican-3 IgG1, knobs-into-holes; also called Kn045/Hl055
B6: GpH7-Kn056/GpH7-Hl055/GpL16-k0 (antibody, human IgG1, kappa)
heavy 1: B2 heavy 1 with L232Y, L233Y, G234A, D237S, H266D, Q293L, S296A, L328A, E330I
heavy 2: B2 heavy 1 with G234A, Q293L, L328M, C347Y, D354C, W364S, L366A, Y405V
light: B1 light
notes: Heterodimerized anti-glypican-3 IgG1, knobs-into-holes; also called Kn056/Hl055
B7: H240-Kn125/H240-Hl076/L73-k0 (antibody, human IgG1, kappa)
heavy 1: QDQLVQSGAEVKKPGASVKVSCKASGFNIKDTYIQWVRQAPGQGLEWMGRIDPLRKQTKYREKFEGRVTITADTSTNTAYMELSSLRSEDTAVYYCVRSGREFDYWGQGTLVTVSSASTKGPSVFPLAPSSKSTSGGTAALGCLVKDYFPEPVTVSWNSGALTSGVHTFPAVLQSSGLYSLSSVVTVPSSSLGTQTYICNVNHKPSNTKVDKKVEPKSCDKTHTCPPCPAPEYQWGPMVFLFPPKPKDTLMISRTPEVTCVVVDVSDEEPEVKFNWYVDGVEVHNAKTKPREEQYNATYRVVSVLTVLHQDWLNGKEYKCKVSNKALPAPIEKTISKAKGQPREPQVCTLPPSRDELTKNQVSLWCLVKGFYPSDIAVEWESNGQPENNYKTTPPVLDSDGSFFLYSKLTVDKSRWQQGNVFSCSVMHEALHNHYTQKSLSLSP
heavy 2: QDQLVQSGAEVKKPGASVKVSCKASGFNIKDTYIQWVRQAPGQGLEWMGRIDPLRKQTKYREKFEGRVTITADTSTNTAYMELSSLRSEDTAVYYCVRSGREFDYWGQGTLVTVSSASTKGPSVFPLAPSSKSTSGGTAALGCLVKDYFPEPVTVSWNSGALTSGVHTFPAVLQSSGLYSLSSVVTVPSSSLGTQTYICNVNHKPSNTKVDKKVEPKSCDKTHTCPPCPAPELLGGPSVFLFPPKPKDTLMISRTPEVTCVVVDVSHEEPEVKFNWYVDGVEVHNAKTKPREEQYNSTYRVVSVLTVLHQDWLNGKEYKCKVSNDALPMPIEETISKAKGQPREPQVYTLPPSRCELTKNQVSLSCAVKGFYPSDIAVEWESNGQPENNYKTTPPVLDSDGSFFLVSKLTVDKSRWQQGNVFSCSVMHEALHNHYTQKSLSLSP
light: DIQMTQSPSSLSASVGDRVTITCRASQDIHKYIAWYQQKPGQAPRLLIQYTSTLQPGVPSRFSGSGSGTDYTFTISSLQPEDIATYYCLQYEQLRTFGGGTKVEIKRTVAAPSVFIFPPSDEQLKSGTASVVCLLNNFYPREAKVQWKVDNALQSGNSQESVTEQDSKDSTYSLSSTLTLSKADYEKHKVYACEVTHQGLSSPVTKSFNRGEC
notes: Template of the position 330 series

Legend:
[1] = molecular target: T1, FcγRIIa R extracellular domain with C-terminal His tag (human, UniProt P12318 34-217); assay: SPR (Biacore); ratio KD for FcγRIIb / KD for FcγRIIa R
T1 construct: extracellular domain; Soluble receptor, R131 allotype; also called FcgRIIa R; FcgRIIaR; not shown: His tag at the C terminus
T1 sequence (looked up): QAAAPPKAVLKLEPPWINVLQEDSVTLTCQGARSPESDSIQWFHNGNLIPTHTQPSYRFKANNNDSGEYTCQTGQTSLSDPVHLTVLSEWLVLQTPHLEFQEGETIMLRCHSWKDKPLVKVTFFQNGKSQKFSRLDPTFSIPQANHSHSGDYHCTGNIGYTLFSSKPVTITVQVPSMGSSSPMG
Method: (§1) These antibodies were assessed for the binding activity to each FcγR according to the method described in Reference Example 2.
(§2) Analysis of interaction between objective antibody and the FcγR was carried out using Biacore T100 (GE Healthcare). HBS-EP+ (GE Healthcare) was used as the running buffer, and the measurement temperature was set to 25° C. Chips produced by immobilizing the antigen peptide by the amine coupling method to a Series S Sencor Chip CM5 (GE Healthcare), or alternatively, chips produced by allowing preliminarily biotinylated antigen peptides to interact with and immobilize onto a Series S Sensor Chip SA (certified) (GE Healthcare) were used. Antibodies of interest were captured onto an antigen peptide-immobilized chip, and allowed to interact to each FcγR diluted with running buffer. To regenerate and repeatedly use the chip, the antibodies captured on the chip were washed off by reacting 10 mM glycine-HCl, pH 1.5.

[2] = molecular target: T2, FcγRIIa H extracellular domain with C-terminal His tag (human, UniProt P12318 34-217); assay: SPR (Biacore); ratio KD for FcγRIIb / KD for FcγRIIa H
T2 construct: extracellular domain; Soluble receptor, H131 allotype; also called FcgRIIa H; FcgRIIaH; not shown: His tag at the C terminus
T2 sequence (looked up): T1 sequence (looked up) with R134H
Method: as §1, §2

FcgRIIIaF [3] = molecular target: T3, FcgRIIIaF (human, UniProt P08637 17-208); assay: SPR (Biacore), antibody captured, FcgR extracellular domain as analyte
T3 construct: extracellular domain; Polymorphic site after J. Clin. Invest; also called FcγRIIIa F; 3aF; not shown: His tag at the C terminus
Method: (§3) Next, the amino acid at position 330 was examined. The A330M alteration has been introduced into H240-Hl076 of H240-Kn125/H240-Hl076/L73-k0. […] L73-k0 was used as the common antibody L chain. Binding of the produced variants to FcgRIa, FcgRIIaR, FcgRIIaH, FcgRIIb, FcgRIIIaF, and FcgRIIIaV was measured according to the method of Reference Example 8.
(§4) Analysis of interaction between objective antibody and the FcγR was carried out using Biacore T100 (GE Healthcare), Biacore T200, Biacore A100, and Biacore 4000. HBS-EP+ (GE Healthcare) was used as the running buffer, and the measurement temperature was set to 25° C. Chips produced by immobilizing the antigen peptide by the amine coupling method to a Series S sensor Chip CM5 (GE Healthcare), chips produced by allowing preliminarily biotinylated antigen peptides to interact with and immobilize onto a Series S Sensor Chip SA (certified) (GE Healthcare), chips produced by immobilizing Protein L (ACTIGEN, BioVision) to Series S Sencor Chip CM5 (GE Healthcare), or chips produced by immobilizing Protein A/G (Thermo Scientific) to Series S Sencor Chip CM5 (GE Healthcare) were used. Antibodies of interest were captured onto these chips, and allowed to interact to each FcγR diluted with running buffer. To regenerate and repeatedly use the chip, the antibodies captured onto the chip were washed off by reacting 10 mM glycine-HCl, pH 1.5.

FcgRIIIaV [4] = molecular target: T4, FcgRIIIaV (human, UniProt P08637 17-208); assay: as above
T4 construct: extracellular domain; Polymorphic site after J. Clin. Invest; also called FcγRIIIa V; 3aV; not shown: His tag at the C terminus
Method: as §3, §4

FcgRIIb [5] = molecular target: T5, FcgRIIb (human, UniProt P31994 43-217); assay: as above
T5 construct: extracellular domain; also called FcγRIIb; 2b; not shown: His tag at the C terminus
T5 sequence (looked up): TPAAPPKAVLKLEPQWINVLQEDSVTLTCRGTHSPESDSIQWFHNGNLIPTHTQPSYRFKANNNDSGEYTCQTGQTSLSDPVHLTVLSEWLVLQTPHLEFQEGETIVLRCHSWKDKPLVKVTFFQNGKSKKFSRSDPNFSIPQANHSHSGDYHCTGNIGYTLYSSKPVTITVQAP
Method: as §3, §4

FcgRIIaR [6] = molecular target: T6, FcgRIIaR (human, UniProt P12318 34-217); assay: as above
T6 construct: extracellular domain; also called FcγRIIa R; FcγRIIa type R; not shown: His tag at the C terminus
T6 sequence (looked up): T1 sequence (looked up)
Method: as §3, §4

FcgRIIaH [7] = molecular target: T7, FcgRIIaH (human, UniProt P12318 34-217); assay: as above
T7 construct: extracellular domain; also called FcγRIIa H; FcγRIIa type H; not shown: His tag at the C terminus
T7 sequence (looked up): T1 sequence (looked up) with R134H
Method: as §3, §4

FcgRIa = molecular target: T8, FcgRIa (human, UniProt P12314 16-292); assay: as above
T8 construct: extracellular domain; also called FcγRIa; FcγRI; not shown: His tag at the C terminus
Method: as §3, §4

FcgRIIIaF [8] = molecular target: T3, FcgRIIIaF; assay: SPR (Biacore); KD of H240-Kn033/H240-Hl033/L73-k0 divided by KD of the variant
Method: as §3, §4

FcgRIIIaV [9] = molecular target: T4, FcgRIIIaV; assay: as above
Method: as §3, §4

FcgRIIb [10] = molecular target: T5, FcgRIIb; assay: as above
Method: as §3, §4

FcgRIIaR [11] = molecular target: T6, FcgRIIaR; assay: as above
Method: as §3, §4

FcgRIIaH [12] = molecular target: T7, FcgRIIaH; assay: as above
Method: as §3, §4

T4 sequence (P08637 17-208 F176V limits assumed): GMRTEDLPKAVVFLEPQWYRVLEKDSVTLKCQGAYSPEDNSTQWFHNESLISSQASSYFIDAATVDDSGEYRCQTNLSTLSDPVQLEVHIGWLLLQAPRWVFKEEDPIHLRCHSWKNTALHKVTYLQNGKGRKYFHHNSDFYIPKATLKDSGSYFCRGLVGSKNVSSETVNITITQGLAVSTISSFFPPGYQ
T3 sequence (P08637 17-208): as the sequence (P08637 17-208 F176V limits assumed) above, with V160F counted along it
T8 sequence (P12314 16-292): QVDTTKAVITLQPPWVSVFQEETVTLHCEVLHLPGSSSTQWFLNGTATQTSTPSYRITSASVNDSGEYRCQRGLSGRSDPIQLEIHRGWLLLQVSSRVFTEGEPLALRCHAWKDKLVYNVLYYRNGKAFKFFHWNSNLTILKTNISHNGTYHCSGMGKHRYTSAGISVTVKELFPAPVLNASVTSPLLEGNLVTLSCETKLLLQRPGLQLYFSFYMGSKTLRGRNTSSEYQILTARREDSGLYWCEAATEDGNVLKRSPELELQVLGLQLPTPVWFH

Row | Binder | A/I ratio [1] | A/I ratio [2] | further results
1 | B1 | 4.9 | 6.2 | –
2 | B2 | 1.8 | 0.93 | –
3 | B3 | 13 | 8.6 | –
4 | B4 | 22 | 9.5 | –
5 | B5 | 18 | 8.3 | –
6 | B6 | 16 | 8.7 | –
7 | B7 | – | – | Kd (FcgRIIIaF [3]): 1.3 nM; Kd (FcgRIIIaV [4]): 0.26 nM; Kd (FcgRIIb [5]): 3.9 µM; Kd (FcgRIIaR [6]): 420 nM; Kd (FcgRIIaH [7]): 140 nM; Kd (FcgRIa): 0.066 nM; fold 3aF (FcgRIIIaF [8]): 223 fold; fold 3aV (FcgRIIIaV [9]): 185 fold; fold 2b (FcgRIIb [10]): 0.8 fold; fold 2aR (FcgRIIaR [11]): 1.8 fold; fold 2aH (FcgRIIaH [12]): 3.7 fold
